Source: paper PMC6378327, “Modes of Accessing Bicarbonate for the Regulation of Membrane Guanylate Cyclase (ROS-GC) in Retinal Rods and Cones” (eNeuro, 2019)

Molecular target: the molecule itself
Experiment: SEC + other: gel electrophoresis without reducing agents; purified fragment in solution; molecular weight markers during FPLC elution (Superdex 200) and gel electrophoresis performed without reducing agents

B1: core catalytic domain fragment of bovine ROS-GC1 (G817-Y965) (domain or fragment)
chain: not shown
notes: bovine ROS-GC1 (retinal membrane guanylate cyclase 1), core catalytic domain, G817-Y965; numbers count on: the mature protein (according to Goraczniak et al., 1994); Cloned into the BglII/NcoI site of pET30Xa/LIC (Novagen); Residue numbers are on the mature protein, so they are shifted by the length of the signal peptide relative to the precursor entry; also called ROS-GC1 fragment; soluble …
  stoichiometry N: 2
